The source of these data is patent publication US20090047272.

The target of the data set is G-actin in human serum.

B1: wild-type human DNase I (protein)
chain: LKIAAFNIQTFGETKMSNATLVSYIVQILSRYDIALVQEVRDSHLTAVGKLLDNLNQDAPDTYHYVVSEPLGRNSYKERYLFVYRPDQVSAVDSYYYDDGCEPCGNDTFNREPAIVRFFSRFTEVREFAIVPLHAAPGDAVAEIDALYDVYLDVQEKWGLEDVMLMGDFNAGCSYVRPSQWSSIRLWTSPTFQWLIPDSADTTATPTHCAYDRIVVAGMLLRGAVVPDSALPFNFQAAYGLSDQLAQAISDHYPVEVMLK
Consider B1, for which the Average T50 (min) 50% DNA hydrolysis in human serum is 28 min and the “Time T50 (min) 50% DNA hydrolysis in human serum” value is listed as 26; 28; 30.

B2: actin-resistant version of DNase I, arDNase (+1), substitution A114R (protein)
chain: LKIAAFNIQTFGETKMSNATLVSYIVQILSRYDIALVQEVRDSHLTAVGKLLDNLNQDAPDTYHYVVSEPLGRNSYKERYLFVYRPDQVSAVDSYYYDDGCEPCGNDTFNREPRIVRFFSRFTEVREFAIVPLHAAPGDAVAEIDALYDVYLDVQEKWGLEDVMLMGDFNAGCSYVRPSQWSSIRLWTSPTFQWLIPDSADTTATPTHCAYDRIVVAGMLLRGAVVPDSALPFNFQAAYGLSDQLAQAISDHYPVEVMLK
Turning to B2, the Average T50 (min) 50% DNA hydrolysis in human serum stood at 3 min and the “Time T50 (min) 50% DNA hydrolysis in human serum” value is 2; 3; 4.
